This note sets out measurements from PMC10709299.

The target of the assay is G6PD Meyer (Arg219Gly) (human) (UniProt P11413). Kind of assay: SEC; Superdex 200 Increase 10/300, 100 µg recombinant protein loaded, 50 mM Tris-HCl pH 7.5, 150 mM NaCl, 0.5 ml/min; column calibrated with Gel Filtration Standard (Biorad).

On to “G6PD Meyer (Arg219Gly) (from UniProt P11413-3 1-545) (enzyme)”, for which the stoichiometry N was found to be 2.
